In article PMC5067699:

Legend:
[1] = target: paired-helical filament tau (PHF-tau) from AD brain (human (endogenous in AD patient cortex)) (UniProt P10636); test: SPR
[2] = target: Peptide-7 (tau 195-214, pS199/pS202); test: SPR

Chain of paired-helical filament tau (PHF-tau) from AD brain (human (endogenous in AD patient cortex)) (P10636 whole entry): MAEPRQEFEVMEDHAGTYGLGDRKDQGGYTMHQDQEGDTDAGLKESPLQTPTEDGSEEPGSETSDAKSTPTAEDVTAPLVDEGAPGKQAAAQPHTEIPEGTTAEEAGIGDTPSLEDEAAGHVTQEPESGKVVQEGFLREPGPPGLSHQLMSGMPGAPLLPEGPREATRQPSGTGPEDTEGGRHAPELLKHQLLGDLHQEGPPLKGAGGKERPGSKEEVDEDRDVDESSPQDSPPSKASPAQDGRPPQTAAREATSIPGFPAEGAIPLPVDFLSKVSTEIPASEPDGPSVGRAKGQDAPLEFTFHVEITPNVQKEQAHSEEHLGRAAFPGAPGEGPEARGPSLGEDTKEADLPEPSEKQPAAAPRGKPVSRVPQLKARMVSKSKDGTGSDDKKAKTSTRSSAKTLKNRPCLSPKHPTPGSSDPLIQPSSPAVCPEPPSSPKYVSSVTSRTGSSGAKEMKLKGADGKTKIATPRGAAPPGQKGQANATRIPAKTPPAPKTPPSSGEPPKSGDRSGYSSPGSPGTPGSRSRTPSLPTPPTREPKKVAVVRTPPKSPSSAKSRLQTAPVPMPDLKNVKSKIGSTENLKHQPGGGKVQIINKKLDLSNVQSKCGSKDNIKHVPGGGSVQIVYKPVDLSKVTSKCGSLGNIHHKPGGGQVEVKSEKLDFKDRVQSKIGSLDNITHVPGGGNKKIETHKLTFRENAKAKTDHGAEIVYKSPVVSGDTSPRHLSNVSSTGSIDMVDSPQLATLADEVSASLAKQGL

AT8 Fab (from UniProt P01857 1-103; P01834 1-107)
Kd [1]: 0.021 µM | Kd [2]: > 1000 µM
